Reference: publication doi:10.1101/2022.02.10.479912 (bioRxiv, 2022)

T1: human Interleukin-18 (mature) (human, UniProt Q14116 37-193)
T1 sequence (looked up): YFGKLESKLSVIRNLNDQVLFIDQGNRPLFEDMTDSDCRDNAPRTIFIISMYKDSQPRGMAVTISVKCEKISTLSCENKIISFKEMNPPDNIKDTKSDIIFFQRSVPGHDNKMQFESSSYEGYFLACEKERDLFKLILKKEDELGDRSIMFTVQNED


What was measured:
[1] = target: T1, human Interleukin-18 (mature); assay: SEC-MALLS
[2] = target: T1, human Interleukin-18 (mature); assay: ITC

Binder	binding result [1]	binding result [2]
human IL-18BP truncated at the N-terminus (residues 63-194), endogenously glycosylated, without Endo H treatment (domain or fragment, UniProt O95998 63-194, looked up, N-linked Man5GlcNAc2 glycans, not trimmed (no Endo H)) QCPALEVTWPEVEVPLNGTLSLSCVACSRFPNFSILYWLGNGSFIEHLPGRLWEGSTSRERGSTGTQLCKALVLEQLTPALHSTNFSCVLVDPEQVVQRHVVLAQLWAGLRATLPPTQEALPSSHSSPQQQG	binds	
human IL-18BP truncated at the N-terminus (residues 63-194) treated with Endoglycosidase H (domain or fragment, UniProt O95998 63-194, looked up, N-glycans trimmed by Endo H; N-Acetylglucosamine (GlcNAc) at Asn79, Asn103 and Asn147 in the crystal structure) QCPALEVTWPEVEVPLNGTLSLSCVACSRFPNFSILYWLGNGSFIEHLPGRLWEGSTSRERGSTGTQLCKALVLEQLTPALHSTNFSCVLVDPEQVVQRHVVLAQLWAGLRATLPPTQEALPSSHSSPQQQG		binds
